Assay results reported in patent US20250002962.

What was measured:
[1] = biological target: rS1 domain 1 (S1 D1), P0AG67
[2] = biological target: rS1 domain 2 (S1 D2), P0AG67
[3] = biological target: rS1 domain 2 R139A (S1 D2 R139A), P0AG67
[4] = biological target: rS1 domain 2 R139K (S1 D2 R139K), P0AG67
[5] = biological target: rS1 domain 3 (S1 D3), P0AG67
[6] = biological target: rS1 domain 4 (S1 D4), P0AG67
[7] = biological target: rS1 domain 5 (S1 D5), P0AG67
[8] = biological target: rS1 domain 6 (S1 D6), P0AG67
[9] = biological target: ribosomal protein S1 (rS1), P0AG67

Chain of BSA, P02769 (P02769 25-607): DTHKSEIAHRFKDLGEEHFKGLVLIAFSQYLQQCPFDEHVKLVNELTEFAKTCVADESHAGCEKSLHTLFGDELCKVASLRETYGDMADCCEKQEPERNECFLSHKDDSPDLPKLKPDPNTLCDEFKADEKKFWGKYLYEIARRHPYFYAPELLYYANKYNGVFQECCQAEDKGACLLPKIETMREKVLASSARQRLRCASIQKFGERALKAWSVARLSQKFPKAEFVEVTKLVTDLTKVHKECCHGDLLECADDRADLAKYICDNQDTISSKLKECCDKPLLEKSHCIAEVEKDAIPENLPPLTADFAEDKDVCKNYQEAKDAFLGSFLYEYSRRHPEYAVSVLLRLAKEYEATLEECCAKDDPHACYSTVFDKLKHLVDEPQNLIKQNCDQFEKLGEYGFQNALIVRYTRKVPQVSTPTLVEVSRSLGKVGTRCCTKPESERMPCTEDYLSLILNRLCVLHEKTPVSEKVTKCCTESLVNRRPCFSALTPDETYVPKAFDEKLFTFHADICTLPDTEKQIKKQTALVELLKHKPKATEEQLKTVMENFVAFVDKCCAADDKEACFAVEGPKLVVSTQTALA

B1: ADP-ribosyltransferase ModB from Escherichia virus T4 (cloned ModB with His6 tag) (protein)
chain: MGIINLADVEQLSIKAESVDFQYDMYKKVCEKFTDFEQSVLWQCMEAKKNEALHKHLNEIIKKHLTKSPYQLYRGISKSTKELIKDLQVGEVFSTNRVDSFTTSLHTACSFSYAEYFTETILRLKTDKAFNYSDHISDIILSSPNTEFKYTYEDTDGLDSERTDNLMMIVREQEWMIPIGKYKITSISKEKLHDSFGTFKVYDIEVVELVPRGSLEHHHHHH
- in vitro RNAylation and ADP-ribosylation (SDS-PAGE) (BSA, P02769): control proteins without S1 domain (BSA, NudC inactive quadruple mutant) were not
- RNAylation assay with single S1 domains [1]: rS1 D1, D3, D4 and D5 domains were modified to a much lesser extent
- RNAylation assay with single S1 domains [2]: For rS1 domains D2 and D6 high RNAylation signals were determined
- RNAylation with 5'-NXD-10mer-Cy5 RNAs (Tricine gel, band shift) [2]: rS1 DII was RNAylated in the presence of 5'-NXD-RNAs by ModB
- ADP-ribosylation level of D2 [3]: the ADP-ribosylation level of D2 is dramatically reduced if R139 is substituted by alanine or lysine
- ADP-ribosylation level of D2 [4]: the ADP-ribosylation level of D2 is dramatically reduced if R139 is substituted by alanine or lysine
- RNAylation assay with single S1 domains [5]: rS1 D1, D3, D4 and D5 domains were modified to a much lesser extent
- RNAylation assay with single S1 domains [6]: rS1 D1, D3, D4 and D5 domains were modified to a much lesser extent
- RNAylation assay with single S1 domains [7]: rS1 D1, D3, D4 and D5 domains were modified to a much lesser extent
- RNAylation assay with single S1 domains [8]: For rS1 domains D2 and D6 high RNAylation signals were determined
- RNAylation of rS1 with 32P-labelled 5'-NAD-RNA 8mer (SDS-PAGE, autoradiography) [9]: ModB rapidly RNAylated its known target, ribosomal protein S1 (rS1) without detectable self-RNAylation
